# System: Escherichia coli TOP10
# Experiment: shrunken log2 fold change of peptide-encoding DNA abundance (4.5 h post-induction vs induction); higher = less antimicrobial activity (less host growth inhibition)
# Conditions: time post-induction: 4.5 h; library: site-saturation at positions 5, 18, 19, 20
# 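Also: peptides expressed intracellularly from a pBAD plasmid library in pooled LB shake-flask culture, induced with 0.3% L-arabinose, DNA abundance read by NGS, three biological replicates, DESeq2 with apeglm shrinkage.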
row,Sequence,shrunken log2 fold change
1,RRIRFRPPRLPRPRPRPNVKPRP,-0.574
2,RRIRFRPPRLPRPRPRPAQPPRP,0.277
3,RRIRLRPPRLPRPRPRPSRDPRP,0.152
4,RRIRNRPPRLPRPRPRPIEVPRP,0.0112
5,RRIRCRPPRLPRPRPRPTGNPRP,0.048
6,RRIRSRPPRLPRPRPRPDVEPRP,0.00664
7,RRIRNRPPRLPRPRPRPFHPPRP,0.0752
8,RRIRARPPRLPRPRPRPLDAPRP,0.746
9,RRIRVRPPRLPRPRPRPLAVPRP,0.33
10,RRIRCRPPRLPRPRPRPFSHPRP,-0.608
11,RRIRWRPPRLPRPRPRPGPPPRP,0.671
12,RRIRRRPPRLPRPRPRPHWAPRP,-0.17
13,RRIRGRPPRLPRPRPRPRSNPRP,0.363
14,RRIRSRPPRLPRPRPRPQRYPRP,-0.167
15,RRIRDRPPRLPRPRPRPKLMPRP,-0.146
16,RRIRCRPPRLPRPRPRPWKVPRP,0.101
17,RRIRQRPPRLPRPRPRPPGKPRP,0.0921
18,RRIRRRPPRLPRPRPRPVWMPRP,0.561
19,RRIRPRPPRLPRPRPRPNLMPRP,-0.0727
20,RRIRHRPPRLPRPRPRPGCNPRP,-0.175
21,RRIRKRPPRLPRPRPRPYGIPRP,-0.329
22,RRIRVRPPRLPRPRPRPYHNPRP,-0.946
23,RRIRVRPPRLPRPRPRPKDYPRP,-0.366
24,RRIRGRPPRLPRPRPRPERTPRP,1.21
25,RRIRGRPPRLPRPRPRPFWTPRP,0.0497

row,Sequence,shrunken log2 fold change
1,RRIRSRPPRLPRPRPRPRCSPRP,0.0579
2,RRIRMRPPRLPRPRPRPYLDPRP,0.107
3,RRIRNRPPRLPRPRPRPWVKPRP,-0.0802
4,RRIRTRPPRLPRPRPRPLKVPRP,-0.221
5,RRIRQRPPRLPRPRPRPVLSPRP,-0.0147
6,RRIRKRPPRLPRPRPRPSWCPRP,-0.152
7,RRIRCRPPRLPRPRPRPPHFPRP,0.872
8,RRIRQRPPRLPRPRPRPMRQPRP,-0.0137
9,RRIRVRPPRLPRPRPRPKNNPRP,-0.406
10,RRIRHRPPRLPRPRPRPIKTPRP,-0.00476
11,RRIRCRPPRLPRPRPRPNGVPRP,-0.216
12,RRIRLRPPRLPRPRPRPDHKPRP,-0.257
13,RRIRYRPPRLPRPRPRPSHLPRP,-0.286
14,RRIRCRPPRLPRPRPRPYLVPRP,-0.584
15,RRIRSRPPRLPRPRPRPAPSPRP,1.24
16,RRIRYRPPRLPRPRPRPMVWPRP,-0.0211
17,RRIRHRPPRLPRPRPRPVYQPRP,-0.359
18,RRIRGRPPRLPRPRPRPQCIPRP,0.438
19,RRIRQRPPRLPRPRPRPLNEPRP,-0.136
20,RRIRNRPPRLPRPRPRPEDMPRP,-0.0541
21,RRIRFRPPRLPRPRPRPRDWPRP,0.308
22,RRIRYRPPRLPRPRPRPMICPRP,-0.0731
23,RRIRPRPPRLPRPRPRPQTHPRP,-0.272
24,RRIRWRPPRLPRPRPRPVMEPRP,0.0979
25,RRIRWRPPRLPRPRPRPIKRPRP,0.21

row,Sequence,shrunken log2 fold change
1,RRIRSRPPRLPRPRPRPKAHPRP,0.277
2,RRIRKRPPRLPRPRPRPTGMPRP,0.128
3,RRIRSRPPRLPRPRPRPFPAPRP,0.0186
4,RRIRDRPPRLPRPRPRPFLPPRP,-0.358
5,RRIRWRPPRLPRPRPRPKHNPRP,-0.152
6,RRIRLRPPRLPRPRPRPTLRPRP,0.161
7,RRIRSRPPRLPRPRPRPLRYPRP,0.166
8,RRIRKRPPRLPRPRPRPGDKPRP,0.0976
9,RRIRQRPPRLPRPRPRPVWLPRP,0.2
10,RRIRHRPPRLPRPRPRPRKWPRP,-0.0137
11,RRIRKRPPRLPRPRPRPLDQPRP,0.257
12,RRIRDRPPRLPRPRPRPPEFPRP,-0.0567
13,RRIRTRPPRLPRPRPRPVDMPRP,-0.238
14,RRIRIRPPRLPRPRPRPGGEPRP,-0.063
15,RRIRTRPPRLPRPRPRPGVAPRP,0.639
16,RRIRRRPPRLPRPRPRPAQNPRP,0.398
17,RRIRARPPRLPRPRPRPMCCPRP,0.335
18,RRIRVRPPRLPRPRPRPIGIPRP,-0.415
19,RRIRLRPPRLPRPRPRPICVPRP,0.151
20,RRIRIRPPRLPRPRPRPRGNPRP,-0.0419
21,RRIRARPPRLPRPRPRPIDKPRP,0.236
22,RRIRFRPPRLPRPRPRPNVYPRP,-0.558
23,RRIRMRPPRLPRPRPRPWWYPRP,-1.27
24,RRIRERPPRLPRPRPRPTFHPRP,-0.0533
25,RRIRMRPPRLPRPRPRPFQRPRP,-0.0335

row,Sequence,shrunken log2 fold change
1,RRIRDRPPRLPRPRPRPQFFPRP,-0.00144
2,RRIRARPPRLPRPRPRPMKCPRP,-0.0407
3,RRIRCRPPRLPRPRPRPDRVPRP,-0.112
4,RRIRCRPPRLPRPRPRPIIFPRP,-0.726
5,RRIRARPPRLPRPRPRPVAFPRP,0.457
6,RRIRDRPPRLPRPRPRPAGAPRP,0.509
7,RRIRARPPRLPRPRPRPPITPRP,0.261
8,RRIRSRPPRLPRPRPRPANPPRP,0.11
9,RRIRYRPPRLPRPRPRPGEEPRP,0.0322
10,RRIRDRPPRLPRPRPRPICEPRP,0.229
11,RRIRFRPPRLPRPRPRPSKKPRP,0.0524
12,RRIRLRPPRLPRPRPRPPLNPRP,0.0486
13,RRIRIRPPRLPRPRPRPDGMPRP,-0.06
14,RRIRCRPPRLPRPRPRPIVYPRP,-0.788
15,RRIRNRPPRLPRPRPRPDPVPRP,-0.137
16,RRIRRRPPRLPRPRPRPCHRPRP,-0.0875
17,RRIRWRPPRLPRPRPRPTVDPRP,0.296
18,RRIRRRPPRLPRPRPRPHFMPRP,-0.141
19,RRIRFRPPRLPRPRPRPGDHPRP,0.0283
20,RRIRGRPPRLPRPRPRPHSWPRP,0.417
21,RRIRCRPPRLPRPRPRPPNNPRP,-0.138
22,RRIRPRPPRLPRPRPRPLVFPRP,0.257
23,RRIRQRPPRLPRPRPRPKQSPRP,-0.0143
24,RRIRMRPPRLPRPRPRPGFHPRP,-0.039
25,RRIRPRPPRLPRPRPRPRKHPRP,0.0952

row,Sequence,shrunken log2 fold change
1,RRIRFRPPRLPRPRPRPPFLPRP,-0.0645
2,RRIRMRPPRLPRPRPRPKCSPRP,-0.0186
3,RRIRWRPPRLPRPRPRPSKLPRP,-0.315
4,RRIRNRPPRLPRPRPRPELNPRP,-0.0809
5,RRIRRRPPRLPRPRPRPIGWPRP,0.217
6,RRIRARPPRLPRPRPRPHTGPRP,-0.365
7,RRIRMRPPRLPRPRPRPKGTPRP,1.69
8,RRIRSRPPRLPRPRPRPGQAPRP,0.0166
9,RRIRWRPPRLPRPRPRPWPHPRP,0.204
10,RRIRDRPPRLPRPRPRPMNFPRP,-0.285
11,RRIRQRPPRLPRPRPRPMLTPRP,-0.185
12,RRIRWRPPRLPRPRPRPIPWPRP,-0.0329
13,RRIRCRPPRLPRPRPRPHTVPRP,-0.371
14,RRIRPRPPRLPRPRPRPYVCPRP,-0.73
15,RRIRKRPPRLPRPRPRPWAYPRP,-0.228
16,RRIRMRPPRLPRPRPRPDIDPRP,0.467
17,RRIRTRPPRLPRPRPRPVMNPRP,-0.143
18,RRIRWRPPRLPRPRPRPPDVPRP,0.235
19,RRIRGRPPRLPRPRPRPGVTPRP,0.721
20,RRIRYRPPRLPRPRPRPDFPPRP,-0.48
21,RRIRRRPPRLPRPRPRPATLPRP,0.332
22,RRIRNRPPRLPRPRPRPENYPRP,-0.553
23,RRIRYRPPRLPRPRPRPPGCPRP,0.334
24,RRIRGRPPRLPRPRPRPHWVPRP,0.107
25,RRIRYRPPRLPRPRPRPFTIPRP,-0.00992

row,Sequence,shrunken log2 fold change
1,RRIRKRPPRLPRPRPRPSGPPRP,0.0366
2,RRIRMRPPRLPRPRPRPTPCPRP,0.746
3,RRIRPRPPRLPRPRPRPCSVPRP,0.0152
4,RRIRTRPPRLPRPRPRPEHYPRP,-0.0177
5,RRIRTRPPRLPRPRPRPQDGPRP,-0.0217
6,RRIRVRPPRLPRPRPRPFCTPRP,-0.389
7,RRIRKRPPRLPRPRPRPKLHPRP,0.129
8,RRIRTRPPRLPRPRPRPFHPPRP,-0.335
9,RRIRERPPRLPRPRPRPHRAPRP,-0.0349
10,RRIRQRPPRLPRPRPRPAMTPRP,0.00659
11,RRIRYRPPRLPRPRPRPDYKPRP,-0.136
12,RRIRPRPPRLPRPRPRPNWMPRP,0.0917
13,RRIRNRPPRLPRPRPRPIQAPRP,-0.0922
14,RRIRDRPPRLPRPRPRPNMTPRP,0.0572
15,RRIRTRPPRLPRPRPRPNMVPRP,-0.0672
16,RRIRQRPPRLPRPRPRPYYVPRP,-0.0108
17,RRIRCRPPRLPRPRPRPDSQPRP,-0.203
18,RRIRKRPPRLPRPRPRPQQMPRP,0.313
19,RRIRCRPPRLPRPRPRPTHPPRP,0.164
20,RRIRIRPPRLPRPRPRPNAYPRP,-0.243
21,RRIRTRPPRLPRPRPRPFKGPRP,-0.264
22,RRIRDRPPRLPRPRPRPPMLPRP,-0.0165
23,RRIRSRPPRLPRPRPRPCFRPRP,-0.349
24,RRIRMRPPRLPRPRPRPVHGPRP,0.32
25,RRIRKRPPRLPRPRPRPQEKPRP,-0.0233

# Source: the supplement of paper PMC9112550, “Optimization of the antimicrobial peptide Bac7 by deep mutational scanning” (BMC Biology, 2022)
